In paper PMC7842947:

Target: chondroitin sulfate proteoglycan 4 (CSPG4), endogenous on HeLa cells (human (endogenous in HeLa)) (UniProt Q6UVK1)
Chain of UniProt Q6UVK1 (Q6UVK1 30-2322): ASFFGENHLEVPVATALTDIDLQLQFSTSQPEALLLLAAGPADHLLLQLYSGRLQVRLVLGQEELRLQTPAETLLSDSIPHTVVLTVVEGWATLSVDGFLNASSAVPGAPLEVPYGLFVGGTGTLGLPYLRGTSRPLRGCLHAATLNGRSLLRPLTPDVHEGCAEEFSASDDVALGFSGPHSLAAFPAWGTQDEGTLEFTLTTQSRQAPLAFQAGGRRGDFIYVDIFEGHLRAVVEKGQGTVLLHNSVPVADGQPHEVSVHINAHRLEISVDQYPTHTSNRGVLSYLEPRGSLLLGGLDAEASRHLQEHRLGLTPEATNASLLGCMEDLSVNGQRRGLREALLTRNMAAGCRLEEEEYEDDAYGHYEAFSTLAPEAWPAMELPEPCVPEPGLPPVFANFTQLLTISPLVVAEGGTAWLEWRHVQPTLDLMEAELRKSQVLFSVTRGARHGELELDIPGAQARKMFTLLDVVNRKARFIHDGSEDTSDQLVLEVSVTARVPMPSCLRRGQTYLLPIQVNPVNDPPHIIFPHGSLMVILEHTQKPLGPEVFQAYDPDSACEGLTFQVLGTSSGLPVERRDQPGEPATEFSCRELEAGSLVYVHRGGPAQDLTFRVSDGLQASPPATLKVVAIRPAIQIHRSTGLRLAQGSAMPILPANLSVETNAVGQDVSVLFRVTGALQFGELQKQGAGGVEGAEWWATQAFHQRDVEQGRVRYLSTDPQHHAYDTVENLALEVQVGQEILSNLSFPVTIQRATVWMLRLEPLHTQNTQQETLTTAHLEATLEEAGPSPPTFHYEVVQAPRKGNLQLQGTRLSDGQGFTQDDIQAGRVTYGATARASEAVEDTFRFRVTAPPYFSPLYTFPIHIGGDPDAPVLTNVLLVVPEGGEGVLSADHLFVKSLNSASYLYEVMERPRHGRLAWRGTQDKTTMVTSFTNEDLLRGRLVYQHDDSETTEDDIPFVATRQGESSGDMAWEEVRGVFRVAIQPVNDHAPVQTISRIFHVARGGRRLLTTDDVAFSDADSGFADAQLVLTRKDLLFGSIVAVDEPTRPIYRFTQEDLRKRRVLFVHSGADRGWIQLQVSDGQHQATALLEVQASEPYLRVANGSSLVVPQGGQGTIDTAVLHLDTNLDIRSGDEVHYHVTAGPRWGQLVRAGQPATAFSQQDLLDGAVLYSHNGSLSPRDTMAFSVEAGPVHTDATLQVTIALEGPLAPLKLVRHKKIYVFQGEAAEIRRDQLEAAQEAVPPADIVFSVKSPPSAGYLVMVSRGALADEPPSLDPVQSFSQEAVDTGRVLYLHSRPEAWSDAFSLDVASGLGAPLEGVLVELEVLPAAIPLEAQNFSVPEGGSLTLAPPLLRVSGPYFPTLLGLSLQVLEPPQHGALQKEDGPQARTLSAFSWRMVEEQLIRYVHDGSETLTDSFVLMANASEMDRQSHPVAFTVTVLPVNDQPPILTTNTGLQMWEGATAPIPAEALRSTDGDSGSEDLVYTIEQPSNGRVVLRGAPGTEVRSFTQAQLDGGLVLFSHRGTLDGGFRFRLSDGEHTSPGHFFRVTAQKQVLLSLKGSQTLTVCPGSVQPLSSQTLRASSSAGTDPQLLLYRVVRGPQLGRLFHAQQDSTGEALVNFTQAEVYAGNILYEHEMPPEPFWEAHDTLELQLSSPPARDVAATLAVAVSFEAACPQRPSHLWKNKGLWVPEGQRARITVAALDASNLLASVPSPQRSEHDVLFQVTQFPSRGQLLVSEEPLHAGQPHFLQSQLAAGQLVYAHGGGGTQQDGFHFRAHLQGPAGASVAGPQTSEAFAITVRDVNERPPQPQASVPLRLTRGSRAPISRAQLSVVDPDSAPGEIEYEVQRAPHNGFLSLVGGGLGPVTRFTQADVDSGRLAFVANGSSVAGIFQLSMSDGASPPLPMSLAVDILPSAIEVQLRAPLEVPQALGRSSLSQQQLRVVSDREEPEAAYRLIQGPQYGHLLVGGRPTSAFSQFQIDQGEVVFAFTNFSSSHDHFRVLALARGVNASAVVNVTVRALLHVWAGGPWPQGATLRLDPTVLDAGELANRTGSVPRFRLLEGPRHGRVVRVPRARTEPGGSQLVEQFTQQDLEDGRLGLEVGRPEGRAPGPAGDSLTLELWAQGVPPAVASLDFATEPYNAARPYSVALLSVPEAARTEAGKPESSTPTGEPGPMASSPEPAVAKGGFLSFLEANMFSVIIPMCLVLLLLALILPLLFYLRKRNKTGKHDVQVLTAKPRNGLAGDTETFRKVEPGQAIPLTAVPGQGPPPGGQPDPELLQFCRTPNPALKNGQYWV

Clostridioides difficile toxin B variant 2 (TcdB2), full length, reference sequence from strain CD196 (natural protein)
CR50, cytopathic cell-rounding assay on HeLa FZD1/2/7-/- cells: 0.06 pM
